Results taken from PMC10879482.

Tests used:
[1] = target: human SIDT1 (hSIDT1) (human) (UniProt Q9NXL6); assay: cryo-EM structure; hSIDT1 at pH 7.5 (hSIDT1^pH7.5); cholesteryl hemisuccinate in the buffer during membrane solubilization; homodimer
[2] = target: human SIDT1 (hSIDT1) (human) (UniProt Q9NXL6); assay: cryo-EM structure; hSIDT1 at pH 5.5 (hSIDT1^pH5.5); homodimer, dimer interface rearranged against pH 7.5

Substance: human SIDT1 (hSIDT1) (from UniProt Q9NXL6 20-827) (natural protein)
- stoichiometry N [1]: 2
- stoichiometry N [2]: 2
